The text below walks through data of US20030119019 (published 2003).

Data set [1] concerns the target GST::bov-rPrP25-242 (rPrPc) (Bos taurus, UniProt P10279 P10279:25-242). In words: EMSA. As to conditions: tags: GST fusion, insect cells/baculovirus; label: 32P. (Mobility shift assays separate free from complexed probe on a gel.)
The target of data set [2] is GST::bov-rPrP93-242 (rPrP27-30 + 1 octarepeat) (Bos taurus, UniProt P10279 P10279:93-242). As to the kind of experiment: EMSA. As to conditions: tags: GST fusion, insect cells/baculovirus; label: 32P.

B1: Ap1 motif I 60mer (ssRNA)
RNA: GCAAUGCGUUGUGUGGGAAUUUGAGGGACGAUGGGGAAGUGGGGACGAAUGACUCAUUGC
For B1, the binding result in data set [1] is reported as “binds”; in data set [2] it was “no binding”.

B2: Ap2 motif II (ssRNA)
RNA: GGAGCUCAGCCUUCACUGCUACCUUAGAGUAGGAGCGGGACGAGGGGUUGUUGGGACGUGGGUAUGAUCCAUACAUUAGGAAGCUGGUGAGCUGGCACCACGGUCGGAUCCAC
For the molecule B2, the binding result is “binds” in data set [1] and “no binding” in data set [2].
